From patent publication US20240366728A1, “Treatment of Diabetes Mellitus” (Carmot Therapeutics Inc., priority 2023, published 2024)

Target: mouse GLP-1R (mouse) (UniProt O35659)
Experiment: cell-based or functional assay

Chain of mouse GLP-1R (mouse) (O35659 22-463): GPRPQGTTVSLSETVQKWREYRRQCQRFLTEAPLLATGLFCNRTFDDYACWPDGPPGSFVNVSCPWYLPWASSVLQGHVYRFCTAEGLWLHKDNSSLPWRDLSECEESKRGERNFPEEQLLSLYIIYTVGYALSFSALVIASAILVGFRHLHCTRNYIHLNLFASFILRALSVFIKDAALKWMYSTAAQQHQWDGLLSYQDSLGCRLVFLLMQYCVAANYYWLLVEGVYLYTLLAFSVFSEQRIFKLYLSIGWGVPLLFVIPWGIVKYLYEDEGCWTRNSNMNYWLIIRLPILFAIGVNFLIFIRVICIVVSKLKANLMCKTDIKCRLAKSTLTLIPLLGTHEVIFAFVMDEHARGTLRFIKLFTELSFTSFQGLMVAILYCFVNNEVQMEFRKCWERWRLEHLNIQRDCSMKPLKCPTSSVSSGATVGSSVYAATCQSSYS

Substance	mGLP-1R cAMP (-alb) % Emax	mGLP-1R β-arrestin-2 % Emax	cAMP accumulation EC50	β-arrestin-2 recruitment
Liraglutide (peptide)	92%	80.7%		
Human GLP-1 (7-36) (from UniProt P01275 21-180) (ligand)			3 pM	99%
